From article PMC5789848, “HTLV-1 Tax plugs and freezes UPF1 helicase leading to nonsense-mediated mRNA decay inhibition” come the findings set out here.

Data set [1] addresses T1, UPF1-HD (Homo sapiens, UniProt Q92900-2 295-914).
T1 sequence: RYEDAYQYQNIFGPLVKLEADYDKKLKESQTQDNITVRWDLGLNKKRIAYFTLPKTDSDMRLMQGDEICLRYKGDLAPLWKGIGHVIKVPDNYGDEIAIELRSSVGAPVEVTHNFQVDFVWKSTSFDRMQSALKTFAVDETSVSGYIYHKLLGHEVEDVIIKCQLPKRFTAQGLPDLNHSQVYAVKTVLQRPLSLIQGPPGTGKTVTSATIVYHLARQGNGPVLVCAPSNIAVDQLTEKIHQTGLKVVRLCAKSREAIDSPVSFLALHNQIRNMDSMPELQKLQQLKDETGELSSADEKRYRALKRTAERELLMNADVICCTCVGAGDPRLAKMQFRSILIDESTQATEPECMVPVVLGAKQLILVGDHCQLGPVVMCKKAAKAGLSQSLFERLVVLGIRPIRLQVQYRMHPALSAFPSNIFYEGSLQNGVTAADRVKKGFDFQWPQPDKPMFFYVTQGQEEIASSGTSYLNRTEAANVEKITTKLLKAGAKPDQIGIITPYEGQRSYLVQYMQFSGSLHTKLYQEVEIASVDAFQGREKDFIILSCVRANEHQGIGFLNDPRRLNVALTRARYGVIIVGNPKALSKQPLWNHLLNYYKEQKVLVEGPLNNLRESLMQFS
The data set can be described thus: pull-down; 200 mM NaCl; BLI: 20 mM HEPES pH 7.5, 150 mM K acetate, 2 mM Mg acetate, 1 mM DTT, 6.3% glycerol, 0.1% NP-40; EMSA: 20 mM MES pH 6.0, 150 mM K acetate, 2 mM DTT, 0.2 ug/ul BSA, 6% glycerol, 30 C; pull-down: BLI-like buffer, 30 C then 4 C, 200 mM NaCl wash. As to conditions: protein: recombinant; tags: C-terminal His6 (CBP N-terminal and/or His6 per Methods); label: 3' biotin (BtnTg); single strand. (In general: A gel shift assay detects complexes by their altered migration in electrophoresis.)

The target of data set [2] is T1, UPF1-HD. The data set can be described thus: EMSA; UPF1-HD 0-10 nM, RNA 1 nM; BLI: 20 mM HEPES pH 7.5, 150 mM K acetate, 2 mM Mg acetate, 1 mM DTT, 6.3% glycerol, 0.1% NP-40; EMSA: 20 mM MES pH 6.0, 150 mM K acetate, 2 mM DTT, 0.2 ug/ul BSA, 6% glycerol, 30 C; pull-down: BLI-like buffer, 30 C then 4 C, 200 mM NaCl wash. As to conditions: protein: recombinant; tags: C-terminal His6 (CBP N-terminal and/or His6 per Methods); label: 32P; single strand.

B1: 30-mer ssRNA 3'-biotin (pull-down) (ssRNA)
RNA: CGUCCAUCUGGUCAUCUAGUGAUAUCAUCG
Regarding B1, the binding result in data set [1] is given as “binds”.

B2: 30-mer ssRNA (EMSA) (ssRNA)
RNA: CGUCCAUCUGGUCAUCUAGUGAUAUCAUCG
For B2, in data set [2], the binding result is “binds”.
